From the Human Domainome abundance scans (Beltran et al. 2025)

B1: Cold shock protein CspB, residues 1 to 66; numbered along this chain, P41016 (parent)
chain: MQRGKVKWFNNEKGYGFIEVEGGSDVFVHFTAIQGEGFKTLEEGQEVSFEIVQGNRGPQAANVVKL

Variants of: B1
Experiment: abundance fitness (aPCA) (normalised: wild type 0, dead -1); higher = more abundant; growth selection in yeast, the domain comes from the species named
Conditions: Bacillus caldolyticus

Abundance fitness: each site, then its substitutions
G57: R -0.089, K -0.081, F -0.237, Y -0.127, W -0.256, P -0.278, S -0.093, Q -0.116, V -0.238, N -0.223, C -0.163, T -0.089, L -0.158, E -0.213, I -0.231, H -0.195, A -0.145, D -0.249
G54: V -0.171, I -0.227, P -0.308, C -0.013, H 0.045, T 0.01, L -0.131, S -0.026, M -0.236, N -0.11, F -0.127, D -0.07, E -0.106, K -0.038, R -0.044, A -0.028, W -0.18
Q59: L 0.016, A -0.003, R 0.092, E -0.103, P -0.733, M -0.011, I -0.08, S -0.01, N -0.082, F 0.061, H -0.02, C -0.05, D -0.429, Y -0.012, T -0.035, W -0.029, G -0.192, V -0.029, K 0.059
F49: E -0.965, I -0.123, Q -0.893, M -0.002, R -0.968, V -0.076, D -1.08, W -0.69, L -0.007, C -0.021, H -0.445, K -1.08, N -1.05, Y -0.037, T -0.27, S -0.577, P -0.984
E42: I -0.051, V -0.008, F -0.048, G -0.001, H 0.008, A 0.018, N -0.02, L -0.006, T -0.011, K 0.017, M -0.006, C -0.013, D 0.004, Y -0.036, Q 0.043, P -0.043
Q53: R -0.002, A -0.002, K -0.033, L -0.027, W 0.007, P -0.092, N 0.004, V -0.001, S -0.03, T 0.018, D 0.022, E 0.003, M 0.01, H -0.046
Q45: H -0.036, T -0.038, E -0.003, D -0.104, I -0.09, L -0.021, A 0.021, S -0.029, C -0.031, N -0.005, W -0.023, V -0.063, M -0.032, R -0.039, F -0.097, P -0.655, Y -0.072, G 0.032
E46: V -0.031, M 0.006, C -0.046, A -0.018, T -0.053, R -0.014, W -0.035, H -0.043, Q -0.012, D -0.153, G -0.017, L 0.014, P -0.023, S 0.015, F -0.025, I -0.071, K -0.004
E43: W -0.045, L -0.012, R 0.032, I -0.031, Q 0.025, G 0.04, P 0.004, M 0.022, K 0.059, N 0.01, A 0.023, C 0.032, H 0.03, Y -0.017, V -0.033, T 0.025, S -0.014
P58: R -0.029, L -0.018, F -0.046, E -0.017, Q -0.015, D -0.037, A 0, Y -0.066, K -0.036, I -0.055, G -0.082, M 0.006, H -0.142, V -0.021
